Measured values: article PMC9482650, “Quantitative fragmentomics allow affinity mapping of interactomes” (Nature Communications, 2022)

T1: PDZD2_2, O15018
T1 sequence (O15018 329-429, limits assumed, looked up): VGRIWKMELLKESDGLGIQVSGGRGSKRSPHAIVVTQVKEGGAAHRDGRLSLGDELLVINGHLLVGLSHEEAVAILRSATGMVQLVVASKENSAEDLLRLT

T2: PDZRN3_1, Q9UPQ7
T2 sequence (Q9UPQ7 244-349, limits assumed, looked up): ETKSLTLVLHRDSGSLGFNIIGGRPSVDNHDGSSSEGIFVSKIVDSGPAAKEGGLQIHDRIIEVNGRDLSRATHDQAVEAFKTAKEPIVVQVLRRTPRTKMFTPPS

T3: MPP2, Q14168
T3 sequence (Q14168 180-250, limits assumed, looked up): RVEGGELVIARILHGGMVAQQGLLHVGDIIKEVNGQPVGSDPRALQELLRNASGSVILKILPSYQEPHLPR

T4: FRMPD1, Q5SYB0
T4 sequence (Q5SYB0 52-145, limits assumed, looked up): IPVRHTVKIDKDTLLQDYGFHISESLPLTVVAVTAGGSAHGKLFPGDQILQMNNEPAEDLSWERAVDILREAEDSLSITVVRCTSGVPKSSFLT

T5: GRIP1_2, Q9Y3R0
T5 sequence (Q9Y3R0 145-248, limits assumed, looked up): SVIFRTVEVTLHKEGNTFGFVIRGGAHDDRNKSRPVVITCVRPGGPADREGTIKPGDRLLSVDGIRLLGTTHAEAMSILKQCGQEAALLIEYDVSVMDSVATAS

T6: PTPN13_1, Q12923
T6 sequence (Q12923 1088-1188, limits assumed, looked up): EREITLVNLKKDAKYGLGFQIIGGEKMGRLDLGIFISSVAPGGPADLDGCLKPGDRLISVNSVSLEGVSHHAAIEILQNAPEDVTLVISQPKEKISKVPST

T7: SYNJ2BP, P57105
T7 sequence (P57105 8-110, limits assumed, looked up): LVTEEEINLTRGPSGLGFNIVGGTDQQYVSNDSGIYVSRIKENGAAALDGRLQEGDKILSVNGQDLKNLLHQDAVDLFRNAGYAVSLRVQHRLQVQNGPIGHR

T8: LRRC7, Q96NW7
T8 sequence (Q96NW7 1440-1537, limits assumed, looked up): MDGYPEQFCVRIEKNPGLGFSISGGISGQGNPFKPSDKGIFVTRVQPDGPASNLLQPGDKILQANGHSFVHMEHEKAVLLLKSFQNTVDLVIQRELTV

T9: SNTG1, Q9NSN8
T9 sequence (Q9NSN8 52-150, limits assumed, looked up): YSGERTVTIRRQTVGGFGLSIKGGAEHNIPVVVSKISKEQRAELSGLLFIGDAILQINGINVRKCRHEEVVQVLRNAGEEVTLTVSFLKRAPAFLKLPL

T10: TX1BP3, O14907
T10 sequence (O14907 10-122, limits assumed, looked up): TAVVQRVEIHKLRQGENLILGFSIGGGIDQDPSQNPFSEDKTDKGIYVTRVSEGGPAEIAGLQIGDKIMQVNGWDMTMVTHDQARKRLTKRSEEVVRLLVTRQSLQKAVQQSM

T11: DFNB31_2, Q9P202
T11 sequence (Q9P202 274-371, limits assumed, looked up): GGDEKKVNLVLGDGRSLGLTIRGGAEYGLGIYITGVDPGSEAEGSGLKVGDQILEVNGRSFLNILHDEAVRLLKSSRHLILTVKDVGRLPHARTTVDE

T12: DFNB31_1, Q9P202
T12 sequence (Q9P202 135-233, limits assumed, looked up): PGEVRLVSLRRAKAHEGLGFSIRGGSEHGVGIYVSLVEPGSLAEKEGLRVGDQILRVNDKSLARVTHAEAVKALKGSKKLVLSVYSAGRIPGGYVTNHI

T13: PCLO, Q9Y6V0
T13 sequence (Q9Y6V0 4491-4600, limits assumed, looked up): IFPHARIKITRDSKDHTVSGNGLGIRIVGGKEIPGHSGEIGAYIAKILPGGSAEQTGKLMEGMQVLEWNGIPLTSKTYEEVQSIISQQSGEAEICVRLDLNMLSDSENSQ

T14: TIAM2, Q8IVF5
T14 sequence (Q8IVF5 885-986, limits assumed, looked up): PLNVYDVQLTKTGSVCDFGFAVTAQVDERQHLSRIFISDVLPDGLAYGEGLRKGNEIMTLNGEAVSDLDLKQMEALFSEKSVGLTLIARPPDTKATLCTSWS


Experiments:
Assay in all cases: holdup assay
Design in all cases: key: below the threshold = too weak to quantify, mostly under pKd 3.1 to 4
Settings in all cases: plain residues with an end cap or a label only (N-terminal biotin on a linker: ado-ado)
Inadl_3, Q8NI35 = biological target: Inadl_3, Q8NI35
Sequence of Inadl_3, Q8NI35 (Q8NI35 359-469): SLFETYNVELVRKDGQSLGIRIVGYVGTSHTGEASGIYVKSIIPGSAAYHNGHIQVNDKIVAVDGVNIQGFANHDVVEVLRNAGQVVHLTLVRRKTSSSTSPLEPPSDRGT

MAGI1_2, Q96QZ7 = biological target: MAGI1_2, Q96QZ7
Sequence of MAGI1_2, Q96QZ7 (Q96QZ7 456-580): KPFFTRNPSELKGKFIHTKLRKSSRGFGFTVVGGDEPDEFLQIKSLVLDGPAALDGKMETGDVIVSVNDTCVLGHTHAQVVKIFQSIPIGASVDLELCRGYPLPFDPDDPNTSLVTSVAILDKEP

PDZD2_2, O15018 = biological target: T1, PDZD2_2, O15018
PDZRN3_1, Q9UPQ7 = biological target: T2, PDZRN3_1, Q9UPQ7
MPP2, Q14168 = biological target: T3, MPP2, Q14168
DLG5_1, Q8TDM6 = biological target: DLG5_1, Q8TDM6
Sequence of DLG5_1, Q8TDM6 (Q8TDM6 617-713): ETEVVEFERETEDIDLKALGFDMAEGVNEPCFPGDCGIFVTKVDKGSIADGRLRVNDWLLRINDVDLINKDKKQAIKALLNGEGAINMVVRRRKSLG

GRIP2_6, Q9C0E4 = biological target: GRIP2_6, Q9C0E4
Sequence of GRIP2_6, Q9C0E4 (Q9C0E4 648-740): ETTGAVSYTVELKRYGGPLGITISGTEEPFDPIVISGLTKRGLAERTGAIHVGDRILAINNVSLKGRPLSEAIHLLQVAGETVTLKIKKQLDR

FRMPD1, Q5SYB0 = biological target: T4, FRMPD1, Q5SYB0
CASK, O14936 = biological target: CASK, O14936
Sequence of CASK, O14936 (O14936 487-570): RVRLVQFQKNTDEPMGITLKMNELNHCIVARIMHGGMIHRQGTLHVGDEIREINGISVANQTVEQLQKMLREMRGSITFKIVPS

GRIP1_2, Q9Y3R0 = biological target: T5, GRIP1_2, Q9Y3R0
PTPN13_1, Q12923 = biological target: T6, PTPN13_1, Q12923
SYNJ2BP, P57105 = biological target: T7, SYNJ2BP, P57105
LRRC7, Q96NW7 = biological target: T8, LRRC7, Q96NW7
SNTG1, Q9NSN8 = biological target: T9, SNTG1, Q9NSN8
TX1BP3, O14907 = biological target: T10, TX1BP3, O14907
DFNB31_2, Q9P202 = biological target: T11, DFNB31_2, Q9P202
SNX27, Q96L92 = biological target: SNX27, Q96L92
GIPC2, Q8TF65 = biological target: GIPC2, Q8TF65
Sequence of GIPC2, Q8TF65 (Q8TF65 112-203): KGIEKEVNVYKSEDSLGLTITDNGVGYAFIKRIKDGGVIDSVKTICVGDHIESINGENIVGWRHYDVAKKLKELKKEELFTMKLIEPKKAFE

DFNB31_1, Q9P202 = biological target: T12, DFNB31_1, Q9P202
PCLO, Q9Y6V0 = biological target: T13, PCLO, Q9Y6V0
FRMPD4, Q14CM0 = biological target: FRMPD4, Q14CM0
Sequence of FRMPD4, Q14CM0 (Q14CM0 67-160): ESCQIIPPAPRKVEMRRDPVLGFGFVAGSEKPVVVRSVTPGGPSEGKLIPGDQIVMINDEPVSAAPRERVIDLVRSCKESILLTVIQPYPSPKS

FRMPD2_3, Q68DX3 = biological target: FRMPD2_3, Q68DX3
Sequence of FRMPD2_3, Q68DX3 (Q68DX3 1073-1166): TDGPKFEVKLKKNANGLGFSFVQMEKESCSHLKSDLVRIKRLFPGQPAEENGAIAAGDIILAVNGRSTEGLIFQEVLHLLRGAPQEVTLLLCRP

TIAM2, Q8IVF5 = biological target: T14, TIAM2, Q8IVF5

| Binder | pKd (Inadl_3, Q8NI35) | pKd (MAGI1_2, Q96QZ7) | pKd (PDZD2_2, O15018) | pKd (PDZRN3_1, Q9UPQ7) | pKd (MPP2, Q14168) | pKd (DLG5_1, Q8TDM6) | pKd (GRIP2_6, Q9C0E4) | pKd (FRMPD1, Q5SYB0) | pKd (CASK, O14936) | pKd (GRIP1_2, Q9Y3R0) | pKd (PTPN13_1, Q12923) | pKd (SYNJ2BP, P57105) | pKd (LRRC7, Q96NW7) | pKd (SNTG1, Q9NSN8) | pKd (TX1BP3, O14907) | pKd (DFNB31_2, Q9P202) | pKd (SNX27, Q96L92) | pKd (GIPC2, Q8TF65) | pKd (DFNB31_1, Q9P202) | pKd (PCLO, Q9Y6V0) | other results |
| --- | --- | --- | --- | --- | --- | --- | --- | --- | --- | --- | --- | --- | --- | --- | --- | --- | --- | --- | --- | --- | --- |
| VGIERETDVL [EZH1, Q92800] | below the threshold | below the threshold | below the threshold | below the threshold | below the threshold | below the threshold | below the threshold | below the threshold | below the threshold | below the threshold | below the threshold | below the threshold | below the threshold | below the threshold | below the threshold | below the threshold | below the threshold | below the threshold | below the threshold | below the threshold | pKd (FRMPD4, Q14CM0): 3.87; pKd (FRMPD2_3, Q68DX3): below the threshold; pKd (TIAM2, Q8IVF5): 3.49 |
| ADRDHASDQL [CTBP1, Q13363] | below the threshold | below the threshold | below the threshold | below the threshold | below the threshold | below the threshold | below the threshold | below the threshold | below the threshold | below the threshold | below the threshold | below the threshold | below the threshold | below the threshold | below the threshold | below the threshold | below the threshold | below the threshold | below the threshold | below the threshold | pKd (FRMPD4, Q14CM0): 3.93; pKd (FRMPD2_3, Q68DX3): below the threshold; pKd (TIAM2, Q8IVF5): below the threshold |

Continued, in another order:

| pKd (Inadl_3, Q8NI35) | pKd (MAGI1_2, Q96QZ7) | pKd (PDZD2_2, O15018) | pKd (PDZRN3_1, Q9UPQ7) | pKd (MPP2, Q14168) | pKd (DLG5_1, Q8TDM6) | pKd (GRIP2_6, Q9C0E4) | pKd (FRMPD1, Q5SYB0) | pKd (CASK, O14936) | pKd (GRIP1_2, Q9Y3R0) | pKd (PTPN13_1, Q12923) | pKd (SYNJ2BP, P57105) | pKd (LRRC7, Q96NW7) | pKd (SNTG1, Q9NSN8) | pKd (TX1BP3, O14907) | pKd (DFNB31_2, Q9P202) | pKd (SNX27, Q96L92) | pKd (GIPC2, Q8TF65) | pKd (DFNB31_1, Q9P202) | pKd (PCLO, Q9Y6V0) | Binder | other results |
| --- | --- | --- | --- | --- | --- | --- | --- | --- | --- | --- | --- | --- | --- | --- | --- | --- | --- | --- | --- | --- | --- |
| below the threshold | 3.87 | 4.82 | 4.33 | below the threshold | below the threshold | below the threshold | below the threshold | below the threshold | below the threshold | below the threshold | 5.41 | below the threshold | 3.63 | below the threshold | below the threshold | 4.1 | below the threshold | 3.8 | below the threshold | GSSSKEGTSV [RRBP1, Q9P2E9] | pKd (FRMPD4, Q14CM0): 3.71; pKd (FRMPD2_3, Q68DX3): below the threshold; pKd (TIAM2, Q8IVF5): below the threshold |
| below the threshold | below the threshold | below the threshold | below the threshold | below the threshold | below the threshold | below the threshold | below the threshold | below the threshold | below the threshold | below the threshold | below the threshold | below the threshold | below the threshold | below the threshold | below the threshold | below the threshold | below the threshold | 3.63 | below the threshold | EGGKKRESEA [APPL1, Q9UKG1] | pKd (FRMPD4, Q14CM0): below the threshold; pKd (FRMPD2_3, Q68DX3): below the threshold; pKd (TIAM2, Q8IVF5): 4.02 |
